What was measured:
Test in all cases: cross-linking; XL-MS, 2 mM BS3 on ice 2 h, purified TRiC with associated tubulin after 1 mM ATP, 5 mM MgCl2, 5 mM Al(NO3)3, 30 mM NaF (ATP-AlFx) 1 h 37 °C
Conditions in all cases: both partners purified
CCT4 = molecular target: T1, CCT4 (human, UniProt P50991 1-539)
T1 construct: CCT4 subunit of human TRiC/CCT, endogenous; stood in the assays as a subunit of the whole TRiC complex; also called TRiC subunit CCT4; source: endogenous, HEK293F cells, purified as a subunit of TRiC
T1 sequence (looked up): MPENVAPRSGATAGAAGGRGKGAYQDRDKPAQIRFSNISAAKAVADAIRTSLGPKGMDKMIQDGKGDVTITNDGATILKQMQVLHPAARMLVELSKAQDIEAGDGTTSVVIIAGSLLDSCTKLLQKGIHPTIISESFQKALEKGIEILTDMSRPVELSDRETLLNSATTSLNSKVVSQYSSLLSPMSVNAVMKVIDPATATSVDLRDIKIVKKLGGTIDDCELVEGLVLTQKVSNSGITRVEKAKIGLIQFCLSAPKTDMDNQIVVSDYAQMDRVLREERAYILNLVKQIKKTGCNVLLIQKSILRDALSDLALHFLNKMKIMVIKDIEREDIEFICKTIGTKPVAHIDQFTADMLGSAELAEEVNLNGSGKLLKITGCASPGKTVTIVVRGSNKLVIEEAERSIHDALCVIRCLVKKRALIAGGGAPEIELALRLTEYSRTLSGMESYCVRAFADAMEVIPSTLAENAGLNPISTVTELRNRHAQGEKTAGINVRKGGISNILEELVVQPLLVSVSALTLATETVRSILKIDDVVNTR

CCT7 = molecular target: T2, CCT7 (human, UniProt Q99832 1-543)
T2 construct: CCT7 subunit of human TRiC/CCT, endogenous; stood in the assays as a subunit of the whole TRiC complex; also called TRiC subunit CCT7; source: endogenous, HEK293F cells, purified as a subunit of TRiC
T2 sequence (looked up): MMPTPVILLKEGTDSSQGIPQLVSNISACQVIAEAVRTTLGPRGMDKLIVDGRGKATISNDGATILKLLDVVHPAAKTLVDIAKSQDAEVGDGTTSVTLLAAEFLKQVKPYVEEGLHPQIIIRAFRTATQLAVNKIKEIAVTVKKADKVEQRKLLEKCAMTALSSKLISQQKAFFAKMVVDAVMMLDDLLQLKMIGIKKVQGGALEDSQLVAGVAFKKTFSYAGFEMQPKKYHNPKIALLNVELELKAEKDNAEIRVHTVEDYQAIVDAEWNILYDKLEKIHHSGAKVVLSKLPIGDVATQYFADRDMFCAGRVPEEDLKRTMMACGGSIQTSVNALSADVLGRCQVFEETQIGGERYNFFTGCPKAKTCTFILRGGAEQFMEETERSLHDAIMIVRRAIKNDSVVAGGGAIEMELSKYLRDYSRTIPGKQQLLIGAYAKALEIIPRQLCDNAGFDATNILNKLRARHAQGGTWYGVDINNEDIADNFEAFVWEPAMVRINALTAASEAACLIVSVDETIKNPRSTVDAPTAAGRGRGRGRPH

CCT8 = molecular target: T3, CCT8 (human, UniProt P50990 1-548)
T3 construct: CCT8 subunit of human TRiC/CCT, endogenous; stood in the assays as a subunit of the whole TRiC complex; also called TRiC subunit CCT8; CCT8’ (copy in the trans ring); source: endogenous, HEK293F cells, purified as a subunit of TRiC
T3 sequence (looked up): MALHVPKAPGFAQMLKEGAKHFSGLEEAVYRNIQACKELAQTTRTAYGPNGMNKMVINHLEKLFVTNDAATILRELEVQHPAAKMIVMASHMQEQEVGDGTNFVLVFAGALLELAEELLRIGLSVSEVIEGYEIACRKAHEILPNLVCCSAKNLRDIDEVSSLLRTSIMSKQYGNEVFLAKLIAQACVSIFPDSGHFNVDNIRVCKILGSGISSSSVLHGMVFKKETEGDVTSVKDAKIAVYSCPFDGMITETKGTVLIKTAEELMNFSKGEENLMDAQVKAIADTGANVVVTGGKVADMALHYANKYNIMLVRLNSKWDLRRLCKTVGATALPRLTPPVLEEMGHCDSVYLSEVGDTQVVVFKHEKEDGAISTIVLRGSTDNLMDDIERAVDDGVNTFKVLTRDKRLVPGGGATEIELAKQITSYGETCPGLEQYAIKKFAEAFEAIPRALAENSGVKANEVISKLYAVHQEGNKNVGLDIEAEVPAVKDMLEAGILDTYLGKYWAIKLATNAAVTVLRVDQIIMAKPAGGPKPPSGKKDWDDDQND

CCT3 = molecular target: T4, CCT3 (human, UniProt P49368 1-545)
T4 construct: CCT3 subunit of human TRiC/CCT, endogenous; stood in the assays as a subunit of the whole TRiC complex; also called TRiC subunit CCT3; source: endogenous, HEK293F cells, purified as a subunit of TRiC
T4 sequence (looked up): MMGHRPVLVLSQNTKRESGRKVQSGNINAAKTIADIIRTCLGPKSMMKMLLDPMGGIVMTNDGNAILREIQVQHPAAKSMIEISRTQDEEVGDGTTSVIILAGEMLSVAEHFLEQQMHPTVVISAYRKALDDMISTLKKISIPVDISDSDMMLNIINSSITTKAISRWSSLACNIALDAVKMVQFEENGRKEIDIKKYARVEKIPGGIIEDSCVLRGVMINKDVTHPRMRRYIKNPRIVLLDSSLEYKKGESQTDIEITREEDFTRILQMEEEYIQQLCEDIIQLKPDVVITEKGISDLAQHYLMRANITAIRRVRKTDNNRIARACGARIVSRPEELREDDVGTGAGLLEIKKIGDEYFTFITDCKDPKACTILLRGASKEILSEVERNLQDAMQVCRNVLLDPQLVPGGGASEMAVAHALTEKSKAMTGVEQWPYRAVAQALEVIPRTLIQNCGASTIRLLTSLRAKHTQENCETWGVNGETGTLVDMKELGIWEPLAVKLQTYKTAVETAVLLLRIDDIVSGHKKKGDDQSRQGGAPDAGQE

CCT5 = molecular target: T5, CCT5 (human, UniProt P48643 1-541)
T5 construct: CCT5 subunit of human TRiC/CCT, endogenous; stood in the assays as a subunit of the whole TRiC complex; also called TRiC subunit CCT5; source: endogenous, HEK293F cells, purified as a subunit of TRiC
T5 sequence (P48643 whole entry): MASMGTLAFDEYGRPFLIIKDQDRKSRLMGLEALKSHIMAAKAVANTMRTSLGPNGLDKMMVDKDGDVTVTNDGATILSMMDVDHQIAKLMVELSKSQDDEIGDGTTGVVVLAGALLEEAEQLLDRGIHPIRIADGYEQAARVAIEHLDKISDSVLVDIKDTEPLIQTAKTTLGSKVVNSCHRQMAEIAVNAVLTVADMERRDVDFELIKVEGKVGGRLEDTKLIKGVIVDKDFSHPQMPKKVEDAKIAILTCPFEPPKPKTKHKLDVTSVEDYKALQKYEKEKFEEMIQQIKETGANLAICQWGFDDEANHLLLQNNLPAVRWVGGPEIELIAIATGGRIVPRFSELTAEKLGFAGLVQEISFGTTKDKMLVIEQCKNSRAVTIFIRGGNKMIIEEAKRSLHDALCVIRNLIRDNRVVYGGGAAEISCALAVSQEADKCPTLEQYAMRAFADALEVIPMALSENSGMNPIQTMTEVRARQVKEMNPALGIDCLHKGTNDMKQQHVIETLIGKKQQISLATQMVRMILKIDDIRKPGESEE

Measured: binding result

B1: β-tubulin (TUBB5) (natural protein, human (endogenous in HEK293F), UniProt P07437 1-444, looked up)
chain: MREIVHIQAGQCGNQIGAKFWEVISDEHGIDPTGTYHGDSDLQLDRISVYYNEATGGKYVPRAILVDLEPGTMDSVRSGPFGQIFRPDNFVFGQSGAGNNWAKGHYTEGAELVDSVLDVVRKEAESCDCLQGFQLTHSLGGGTGSGMGTLLISKIREEYPDRIMNTFSVVPSPKVSDTVVEPYNATLSVHQLVENTDETYCIDNEALYDICFRTLKLTTPTYGDLNHLVSATMSGVTTCLRFPGQLNADLRKLAVNMVPFPRLHFFMPGFAPLTSRGSQQYRALTVPELTQQVFDAKNMMAACDPRHGRYLTVAAVFRGRMSMKEVDEQMLNVQNKNSSYFVEWIPNNVKTAVCDIPPRGLKMAVTFIGNSTAIQELFKRISEQFTAMFRRKAFLHWYTGEGMDEMEFTEAESNMNDLVSEYQQYQDATAEEEEDFGEEAEEEA
notes: β-tubulin (TUBB5), human, endogenous; identified by MS and western blot; folding intermediate to near-natively folded, depending on the state of TRiC; also called substrate; source: endogenous, HEK293F cells, co-purified with TRiC
binds: all assays above
